Laboratory results as given in US20160289285A1 (Molecular Partners, published 2016).
Residue numbers refer to the chain shown, from its start.

Legend:
human HGF = biological target: T1, human HGF (human, UniProt P14210 32-728); experiment: SPR (ProteOn)
T1 construct: also called hepatocyte growth factor
Experimental: (§1) SPR was measured using a ProteOn instrument (BioRad) and measurement was performed according standard procedures known to the person skilled in the art.

human serum albumin = biological target: T2, human serum albumin (human, UniProt P02768 25-609); experiment: size exclusion chromatography coupled to static light scattering
T2 construct: For SEC-MALS purified from CSL Behring 20% solution; also called HSA; SA (human)
T2 sequence (P02768 25-609 limits assumed): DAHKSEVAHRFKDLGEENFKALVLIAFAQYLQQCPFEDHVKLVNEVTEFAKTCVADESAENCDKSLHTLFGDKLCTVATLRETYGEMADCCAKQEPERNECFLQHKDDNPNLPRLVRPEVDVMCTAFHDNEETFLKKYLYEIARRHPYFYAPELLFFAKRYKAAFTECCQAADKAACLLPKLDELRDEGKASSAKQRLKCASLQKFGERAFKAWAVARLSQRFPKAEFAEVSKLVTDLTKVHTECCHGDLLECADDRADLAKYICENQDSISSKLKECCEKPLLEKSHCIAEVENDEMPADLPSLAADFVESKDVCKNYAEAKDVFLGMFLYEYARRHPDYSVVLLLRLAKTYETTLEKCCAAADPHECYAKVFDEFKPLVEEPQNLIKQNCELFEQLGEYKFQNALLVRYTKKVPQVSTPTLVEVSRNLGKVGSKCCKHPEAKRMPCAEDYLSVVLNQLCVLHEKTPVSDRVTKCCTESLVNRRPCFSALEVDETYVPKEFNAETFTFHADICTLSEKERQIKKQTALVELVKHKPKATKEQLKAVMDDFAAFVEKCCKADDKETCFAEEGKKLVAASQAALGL

human VEGF-A = biological target: T3, human VEGF-A (human, UniProt P15692-4 27-191, limits assumed); experiment: SPR (ProteOn)
T3 construct: Recombinant, bought or produced in CHO or Pichia pastoris; also called hVEGF-A
T3 sequence (P15692 other isoform, or with tags, fused parts or gaps limits assumed): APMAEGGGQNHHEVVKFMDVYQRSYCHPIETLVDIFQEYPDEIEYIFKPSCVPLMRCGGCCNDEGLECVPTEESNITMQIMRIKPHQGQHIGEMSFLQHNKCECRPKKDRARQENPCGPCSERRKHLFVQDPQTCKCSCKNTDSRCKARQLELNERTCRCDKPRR
Experimental: as §1

T1 sequence (P14210 32-728 limits assumed): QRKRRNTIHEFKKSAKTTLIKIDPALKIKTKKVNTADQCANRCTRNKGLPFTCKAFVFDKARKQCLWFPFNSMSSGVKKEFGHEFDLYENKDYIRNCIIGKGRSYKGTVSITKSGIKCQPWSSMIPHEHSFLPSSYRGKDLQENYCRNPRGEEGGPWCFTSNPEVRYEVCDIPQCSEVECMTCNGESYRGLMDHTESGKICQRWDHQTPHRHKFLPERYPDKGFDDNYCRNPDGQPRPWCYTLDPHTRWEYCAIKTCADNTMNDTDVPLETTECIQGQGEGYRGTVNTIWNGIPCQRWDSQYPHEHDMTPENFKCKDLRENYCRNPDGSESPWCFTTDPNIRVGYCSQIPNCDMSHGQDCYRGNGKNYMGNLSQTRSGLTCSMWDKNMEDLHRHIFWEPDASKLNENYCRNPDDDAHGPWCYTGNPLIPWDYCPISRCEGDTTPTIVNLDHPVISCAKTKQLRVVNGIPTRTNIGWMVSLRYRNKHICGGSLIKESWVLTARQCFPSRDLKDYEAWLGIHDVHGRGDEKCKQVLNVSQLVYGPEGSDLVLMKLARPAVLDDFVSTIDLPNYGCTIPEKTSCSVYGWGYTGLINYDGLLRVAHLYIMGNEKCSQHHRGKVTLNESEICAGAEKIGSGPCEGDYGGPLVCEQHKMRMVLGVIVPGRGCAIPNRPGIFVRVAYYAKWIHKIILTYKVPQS

B1: Protein #37 (designed binder)
chain: MRGSHHHHHHGSDLGKKLLEAARAGQDDEVRILMANGADVNASDDTGLTPLHLAANRGHLEIVEVLLKHGADVNANDFAGMTPLHLAANVGHLEIVEVLLKYGADVNAHDDYGLTPLHLAANWRHLEIVEVLLKNGADVNAQDKFGKTAFDISIDNGNEDLAEILQKAA
Question: Does B1 bind (human HGF)?
Answer: Result: binds

B2: Protein #24 (designed binder)
chain: MRGSHHHHHHGSDLGKKLLEAARAGQDDEVRILMANGADVNAKDRFGDTPLHLAADIGHLEIVEVLLKAGADVNAKDWFGNTPLHLAASFGHLEIVEVLLKAGADVNAKDDYGNTPLHLAANTGHLEIVEVLLKAGADVNAQDKFGKTAFDISIDNGNEDLAEILQKAA
Question: With B2 as the binder, how does the Kd (human HGF) read?
Answer: Its Kd is 0.163 nM.

B3: Protein #32 (designed binder)
chain: MRGSHHHHHHGSDLGKKLLEAARAGQDDEVRILMANGADVNAIDTWGNTPLHLAADYGHLEIVEVLLKNGADVNALDWFGDTPLHLAASLGHLEIVEVLLKNGADVNAVDTYGNTPLHLAANTGRLEIVEVLLKYGADVNAQDKFGKTAFDISIDNGNEDLAEILQKAA
Question: Does B3 bind (human HGF)?
Answer: Result: binds

B4: Protein #109 (designed binder)
chain: MRGSHHHHHHGSDLGKKLLEAARAGQDDEVRILMANGADVNAKDYFSHTPLHLAARNGHLKIVEVLLKAGADVNAKDFAGKTPLHLAANDGHLEIVEVLLKHGADVNAQDIFGKTPADIAADAGHEDIAEVLQKLGSPTPTPTTPTPTPTTPTPTPTGSRSDLGKKLLEAARAGQDDEVRILMANGADVNAKDYFSHTPLHLAARNGHLKIVEVLLKAGADVNAKDFAGKTPLHLAANDGHLEIVEVLLKHGADVNAQDIFGKTPADIAADAGHEDIAEVLQKLGSPTPTPTTPTPTPTTPTPTPTGSRSDLGKKLLEAARAGQDDEVRILMANGADVNAKDKDGYTPLHLAAREGHLEIVEVLLKAGADVNAKDKDGYTPLHLAAREGHLEIVEVLLKAGADVNAQDKFGKTAFDISIDNGNEDLAEILQKLGSPTPTPTTPTPTPTTPTPTPTGSRSDLGKKLLEAARAGQDDEVRILMANGADVNAKDKDGYTPLHLAAREGHLEIVEVLLKAGADVNAKDKDGYTPLHLAAREGHLEIVEVLLKAGADVNAQDKFGKTAFDISIDNGNEDLAEILQKLN
Question: Does B4 bind (human serum albumin)?
Answer: Result: binds

B5: Protein #33 (designed binder)
chain: MRGSHHHHHHGSDLGKKLLEAARAGQDDEVRILMANGADVNAQDRWGDTPLHLAASAGHLKIVEVLLKYGADVNADDVFGDTPLHLAASLGHLEIVEVLLKYGADVNADDYAGNTPLHLAANTGHLEIVEVLLKHGADVNAQDKFGKTAFDISIDNGNEDLAEILQKAA
Question: Does B5 bind (human HGF)?
Answer: Result: binds

B6: Protein #34 (designed binder)
chain: B5 chain with H135Y
Question: Does B6 bind (human HGF)?
Answer: Result: binds

B7: Protein #97 (designed binder)
chain: MRGSHHHHHHGSDLGKKLLEAARAGQDDEVRILMANGADVNAKDYFSHTPLHLAARNGHLKIVEVLLKAGADVNAKDFAGKTPLHLAANDGHLEIVEVLLKHGADVNAQDIFGKTPADIAADAGHEDIAEVLQKLGSPTPTPTTPTPTPTTPTPTPTGSRSDLGKKLLEAARAGQDDEVRILLKAGADVNAKDRYGDTPLHLAADAGHLKIVEVLLKAGADVNAEDYFGNTPLHLAASAGHLEIVEVLLKAGADVNAKDDAGNTPLHLAANTGHLKIVEVLLKAGADVNAQDKSGKTPADLAADAGHEDIAEVLQKLGSPTPTPTTPTPTPTTPTPTPTGSRSDLDKKLLEAARAGQDDEVRILLKAGADVNAKDYLGWTPLHLAAHEGHLEIVEVLLKAGADVNAKDVSGYTPLHLAAADGHLEIVEVLLKAGADVNAKDNTGWTPLHLSADLGHLEIVEVLLKAGADVNAQDKFGKTAFDISIDNGNEDLAEILQKLGSPTPTPTTPTPTPTTPTPTPTGSRSDLGKKLLEAARAGQDDEVRILMANGADVNAKDYFSHTPLHLAARNGHLKIVEVLLKAGADVNAKDFAGKTPLHLAANDGHLEIVEVLLKHGADVNAQDIFGKTPADIAADAGHEDIAEVLQKLN
Question: Does B7 bind (human serum albumin)?
Answer: Result: binds

B8: Protein #14 (designed binder)
chain: MRGSHHHHHHGSDLGKKLLEAARAGQDDEVRILMANGADVNTADSTGWTPLHLAAPWGHPEIVEVLLKNGADVNAHDYQGWTPLHLAATLGHLEIVEVLLKHGADVNAQDKFGKTAFDISIDNGNEDLAEILQKAA
Question: Does B8 bind (human VEGF-A)?
Answer: Result: binds

B9: Protein #15 (designed binder)
chain: B8 chain with A55V, P60L, N69Y, H76K, Y78F, T89A, L90I, L93Q, H102N
Question: Does B9 bind (human VEGF-A)?
Answer: Result: binds

B10: Protein #17 (designed binder)
chain: B8 chain with T42A, A43R, H76A, Y78F, T89A, L90V
Question: Does B10 bind (human VEGF-A)?
Answer: Result: binds

B11: Protein #22 (designed binder)
chain: B8 chain with G15D, T42A, A43K, P60L, N69A, H76K, Y78F, T89A, L90V, H102A
Question: Does B11 bind (human VEGF-A)?
Answer: Result: binds

B12: Protein #35 (designed binder)
chain: MRGSHHHHHHGSDLGKKLLEAARAGQDDEVRILMANGADVNANDFLGLTPLHLAASTGHLEIVEVLLKYGADVNAIDAYGHTPLHLAANNGHLEIVEVLLKYGADVNAIDHFGYTPLHLAAMFGHLEIVEVLLKNGADVNAQDKFGKTAFDISIDNGNEDLAEILQKAA
Question: Does B12 bind (human HGF)?
Answer: Result: binds

B13: Protein #36 (designed binder)
chain: MRGSHHHHHHGSDLGKKLLEAARAGQDDEVRILMANGADVNANDSSGLTPLHLAAFYGHLEIVEVLLKYGADVNADDDWGHTPLHLAAHYGHLEIVEVLLKHGADVNAIDTRGLTPLHLAAIAGHLEIVEVLLKYGADVNAQDKFGKTAFDISIDNGNEDLAEILQKAA
Question: Does B13 bind (human HGF)?
Answer: Result: binds

B14: Protein #16 (designed binder)
chain: MRGSHHHHHHGSDLDKKLLEAARAGQDDEVRILMANGADVNAKDSTGYTPLHLAAPWGHLEIVEVLLKAGADVNAKDYQGWTPLHLAAAVGHLEIVEVLLKAGADVNAQDKSGKTPADLAADAGHEDIAEVLQKAA
Question: For B14, which Kd (human VEGF-A) is on record?
Answer: Its Kd is 0.141 nM.

B15: Protein #21 (designed binder)
chain: B14 chain with M34L, A35K, N36A, Y48W, L60P
Question: Does B15 bind (human VEGF-A)?
Answer: Result: binds

B16: Protein #30 (designed binder)
chain: MRGSHHHHHHGSDLGKKLLEAARAGQDDEVRILMANGADVNTHDNFGDTPLHLAASIGHLEIVEVLLKHGADVNAFDSYGDTPLHLAASSGHLEIVEVLLKYGADVNALDYNGNTPLHLAANSGRLEIVEVLLKHGADVNAQDKFGKTAFDISIDNGNEDLAEILQKAA
Question: Does B16 bind (human HGF)?
Answer: Result: binds

B17: Protein #31 (designed binder)
chain: MRGSHHHHHHGSDLGKKLLEAARAGQDDEVRILMANGADVNAVDAWGDTPLHLAASIGHLEIVEVLLKNGADVNAADYYGDTPLHLAASAGHLEIVEVLLKYGADVNAQDDNGNTPLHLAANTGRLEIVEVLLKHGADVNAQDKFGKTAFDISIDNGNEDLAEILQKAA
Question: Does B17 bind (human HGF)?
Answer: Result: binds

B18: Protein #25 (designed binder)
chain: MRGSHHHHHHGSDLGKKLLEAARAGQDDEVRILMANGADVNAKDRYGDTPLHLAADIGHLEIVEVLLKAGADVNAEDYFGNTPLHLAASYGHLEIVEVLLKAGADVNAKDDYGNTPLHLAANTGHLEIVEVLLKAGADVNAQDKSGKTPADLAADAGHEDIAEVLQKAA
Question: Which Kd (human HGF) does the source give for B18 here?
Answer: Its Kd is 0.066 nM.

B19: Protein #27 (designed binder)
chain: B18 chain with M34L, A35K, N36A, I57A, E61K, Y90A, Y112A, E127K
Question: How did the Kd (human HGF) turn out when B19 was run?
Answer: Its Kd is 0.129 nM.

B20: Protein #12 (designed binder)
chain: MRGSHHHHHHGSDLGKKLLEAARAGQDDEVRILMANGADVNAFDWMGWTPLHLAAHEGHLEIVEVLLKNGADVNATDVSGYTPLHLAAADGHLEIVEVLLKHGADVNTKDNTGWTPLHLSADLGHLEIVEVLLKNGADVNAQDKFGKTAFDISIDNGNEDLAEILQKAA
Question: With B20 as the binder, how does the Kd (human VEGF-A) read?
Answer: The Kd was 0.094 nM.

B21: Protein #13 (designed binder)
chain: MRGSHHHHHHGSDLDKKLLEAARAGQDDEVRILLKAGADVNAKDYLGWTPLHLAAHEGHLEIVEVLLKAGADVNAKDVSGYTPLHLAAADGHLEIVEVLLKAGADVNAKDNTGWTPLHLSADLGHLEIVEVLLKAGADVNAQDKFGKTAFDISIDNGNEDLAEILQKAA
Question: With B21 as the binder, how does the Kd (human VEGF-A) read?
Answer: Its Kd is 0.096 nM.

B22: Protein #102 (designed binder)
chain: MRGSHHHHHHGSDLGKKLLEAARAGQDDEVRELLKAGADVNAKDYFSHTPLHLAARNGHLKIVEVLLKAGADVNAKDFAGKTPLHLAANDGHLEIVEVLLKAGADVNAQDIFGKTPADIAADAGHEDIAEVLQKAAGSPTPTPTTPTPTPTTPTPTPTGSDLGKKLLEAARAGQDDEVRILLKAGADVNAKDRYGDTPLHLAADIGHLEIVEVLLKAGADVNAEDYFGNTPLHLAASYGHLEIVEVLLKAGADVNAKDDYGNTPLHLAANTGHLEIVEVLLKAGADVNAQDKSGKTPADLAADAGHEDIAEVLQKAAGSPTPTPTTPTPTPTTPTPTPTGSDLDKKLLEAARAGQDDEVRILLKAGADVNAKDSTGWTPLHLAAPWGHPEIVEVLLKAGADVNAKDFQGWTPLHLAAAVGHLEIVEVLLKAGADVNAQDKSGKTPADLAADAGHEDIAEVLQKAAGSPTPTPTTPTPTPTTPTPTPTGSDLGKKLLEAARAGQDDEVRELLKAGADVNAKDYFSHTPLHLAARNGHLKIVEVLLKAGADVNAKDFAGKTPLHLAANDGHLEIVEVLLKAGADVNAQDIFGKTPADIAADAGHEDIAEVLQKAA
Question: Does B22 bind (human serum albumin)?
Answer: Result: binds
